Experimental data from US20210107998A1 (Boehringer Ingelheim, published 2021).

Assays:
[1] = target: T1, Recombinant human BAFF trimer (Boehringer Ingelheim Pharmaceuticals, Inc.) (human, UniProt Q9Y275 134-285, limits assumed); test: cell-based or functional assay
[2] = target: Recombinant cynomolgus BAFF trimer (Boehringer Ingelheim Pharmaceuticals, Inc.) (cynomolgus, UniProt A0A2K5V2X4 134-285); test: cell-based or functional assay
[3] = target: T1, Recombinant human BAFF trimer …; test: cell-based or functional assay; remark: listed apart in the source
[4] = target: Recombinant human BAFF 60mer (Boehringer Ingelheim Pharmaceuticals, Inc.) (human, UniProt Q9Y275 134-285, limits assumed); test: cell-based or functional assay
[5] = target: membrane-bound human BAFF on fixed CHO-K1 cells (human, UniProt Q9Y275 1-285); test: cell-based or functional assay
[6] = target: T2, Recombinant human IL-23 (human, UniProt P29460 23-328); test: cell-based or functional assay
T2 sequence 1: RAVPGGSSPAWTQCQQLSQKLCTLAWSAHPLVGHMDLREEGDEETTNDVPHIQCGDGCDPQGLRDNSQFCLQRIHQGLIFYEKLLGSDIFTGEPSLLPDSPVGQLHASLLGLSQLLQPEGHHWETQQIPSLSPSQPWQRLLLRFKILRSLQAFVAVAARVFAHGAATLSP
T2 sequence 2: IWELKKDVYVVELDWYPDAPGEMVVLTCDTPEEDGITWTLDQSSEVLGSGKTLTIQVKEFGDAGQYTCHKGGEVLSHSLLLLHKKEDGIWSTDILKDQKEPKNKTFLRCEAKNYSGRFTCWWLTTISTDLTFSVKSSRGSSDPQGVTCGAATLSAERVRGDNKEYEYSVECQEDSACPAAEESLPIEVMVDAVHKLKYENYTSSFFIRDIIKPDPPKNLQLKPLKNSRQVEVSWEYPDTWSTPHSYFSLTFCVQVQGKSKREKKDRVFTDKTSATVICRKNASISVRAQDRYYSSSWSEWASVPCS

[7] = target: T3, cynomolgus IL-23 (cynomolgus, UniProt H6WS56 20-189); test: cell-based or functional assay
[8] = target: T2, Recombinant human IL-23; test: cell-based or functional assay; remark: listed apart in the source
[9] = target: T3, cynomolgus IL-23; test: SPR (ProteOn XPR36), compound captured on goat anti-human IgG Fc, antigen injected
Method: (§1) SPR experiments were performed on a ProteOn XPR36 instrument (Bio Rad). A GLM chip was preconditioned with sequential injections of 60 sec of 0.5% SDS, 50 mM NaOH, and 100 mM HCl at a flow rate of 30 μl/min both vertical and horizontal directions.
(§2) The preconditioned GLM chip was then activated by an injection of EDC (76.7 mg/ml) and sulfo-NHS (21.7 mg/ml) mixture with ratio of 1:1 in 6 horizontal channels. Goat-anti-human IgG (GAHA) Fc gamma (Invitrogen) at a concentration of 30 μg/ml in 10 mM, pH 5.0 sodium acetate buffer was immobilized to 8,000 resonance units on the activated GLM chip in 6 horizontal channels. The chip was finally deactivated with 1 M ethanolamine HCl in 6 horizontal channels. The prepared GAHA chip was rotated to vertical direction to capture test compounds, over 5 vertical channels and the last channel was used as a column reference. The captured chip was then rotated again to the horizontal direction for binding. […] The dissociation was allowed for 2 hour. The GAHA surface was regenerated using short pulse injection (18 seconds) of 0.85% phosphoric acid (Bio Rad) at a flow rate of 100 μl/min both horizontal and vertical directions after 10 min association and 2 hr dissociation. The regenerated GAHA was ready for another binding cycle.

[10] = target: T4, human BAFF (human, UniProt Q9Y275 134-285, limits assumed); test: as above
T4 construct: also called hu BAFF; hBAFF
Method: as §1, §2

[11] = target: T5, cynomolgus BAFF (cynomolgus, UniProt A0A2K5V2X4 134-285); test: as above
T5 construct: construct not described
Method: as §1, §2

[12] = target: T6, Linked human IL-23 (Boehringer Ingelheim Pharmaceuticals, Inc.) (human, UniProt P29460 23-328); test: as above
T6 sequence 1: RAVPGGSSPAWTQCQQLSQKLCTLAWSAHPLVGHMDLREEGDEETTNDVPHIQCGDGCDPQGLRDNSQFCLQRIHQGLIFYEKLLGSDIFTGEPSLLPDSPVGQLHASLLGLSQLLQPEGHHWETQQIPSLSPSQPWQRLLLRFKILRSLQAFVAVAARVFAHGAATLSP
T6 sequence 2: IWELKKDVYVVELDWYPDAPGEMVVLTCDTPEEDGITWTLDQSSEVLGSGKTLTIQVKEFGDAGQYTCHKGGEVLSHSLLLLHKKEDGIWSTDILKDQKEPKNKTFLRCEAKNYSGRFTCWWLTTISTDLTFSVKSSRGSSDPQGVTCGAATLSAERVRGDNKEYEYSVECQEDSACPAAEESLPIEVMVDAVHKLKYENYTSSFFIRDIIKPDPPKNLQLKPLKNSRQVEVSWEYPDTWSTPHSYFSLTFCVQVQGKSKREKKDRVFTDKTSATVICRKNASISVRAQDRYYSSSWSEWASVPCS
Method: as §1, §2

[13] = target: T4, human BAFF; test: BLI (Octet RED96, streptavidin tips), compound incubated 48 h at 37 C in whole blood vs kinetic buffer
Method: (§3) A whole blood interference assay was developed on an Octet RED96 to detect the effects of non-specific binding or off-target binding for compounds in the presence of whole blood (WB). The compound solutions in whole blood and 1× kinetic running buffer (1×kb) were incubated at a temperature of 37° C. for 48 hours. Kinetic measurements for the incubated compound samples were performed with an Octet RED96 equipped with streptavidin (SA) biosensor tips (ForteBio, Menlo Park, Calif.) at 27° C. The ratio of the on-rates/binding signals in buffer and whole blood were reported. A ratio <2 was considered to show no interference.

[14] = target: T2, Recombinant human IL-23; test: as above
Method: as §3

B1: Compound A (bispecific antibody, human IgG1, kappa, L234A L235A)
chain 1: DIQMTQSPSSLSASVGDRVTITCKASRDVAIAVAWYQQKPGKVPKLLIYWASTRHTGVPSRFSGSGSRTDFTLTISSLQPEDVADYFCHQYSSYPFTFGSGTKLEIKGGGSGGGGQVQLVQSGAEVKKPGASVKVSCKASGYSFSTFFIHWVRQAPGQGLEWIGRIDPNSGATKYNEKFESRVTMTRDTSISTAYMELSRLRSDDTAVYYCARGEDLLIRTDALDYWGQGTSVTVSSLGGGSGASTKGPSVFPLAPSSKSTSGGTAALGCLVKDYFPEPVTVSWNSGALTSGVHTFPAVLQSSGLYSLSSVVTVPSSSLGTQTYICNVNHKPSNTKVDKRVEPKSCDKTHTCPPCPAPEAAGGPSVFLFPPKPKDTLYITREPEVTCVVVDVSHEDPEVKFNWYVDGVEVHNAKTKPREEQYNSTYRVVSVLTVLHQDWLNGKEYKCKVSNKALPAPIEKTISKAKGQPREPQVYTLPPSREEMTKNQVSLTCLVKGFYPSDIAVEWESNGQPENNYKTTPPVLDSDGSFFLYSKLTVDKSRWQQGNVFSCSVMHEALHNHYTQKSLSLSPG
chain 2: DIQMTQSPSSLSASVGDRVSITCKASQNAGIDVAWFQQKPGKAPKLLIYSKSNRYTGVPSRFSGSGSGTDFTLTISSLQPEDFATYYCLQYRSYPRTFGQGTKLEIKGGGSGGGGQVQLVQSGAEVKKPGSSVKVSCKASGYTFTDQTIHWMRQAPGQGLEWIGYIYPRDDSPKYNENFKGKVTITADKSTSTAYMELSSLRSEDTAVYYCAIPDRSGYAWFIYWGQGTLVTVSSLGGGSGRTVAAPSVFIFPPSDEQLKSGTASVVCLLNNFYPREAKVQWKVDNALQSGNSQESVTEQDSKDSTYSLSSTLTLSKADYEKHKVYACEVTHQGLSSPVTKSFNRGEC
notes: Made in CHO-S cells
IC50, NFkB luciferase reporter, human BAFFR-CHO cells [1]: 43 pM
IC90, NFkB luciferase reporter, human BAFFR-CHO cells [1]: 180 pM
IC50 Geomean, NFkB luciferase reporter, human BAFFR-CHO cells [2]: 132 pM
IC90 Geomean, NFkB luciferase reporter, human BAFFR-CHO cells [2]: 191 pM
IC50 Geomean, NFkB luciferase reporter, human TACI-CHO cells [3]: 159 pM
IC90 Geomean, NFkB luciferase reporter, human TACI-CHO cells [3]: 417 pM
IC50, NFkB luciferase reporter, human BAFFR-CHO cells [4]: 6 pM
IC90, NFkB luciferase reporter, human BAFFR-CHO cells [4]: 19 pM
IC50, NFkB luciferase reporter, human BAFFR-CHO cells stimulated with fixed human BAFF CHO-K1 cells [5]: 118 pM
IC90, NFkB luciferase reporter, human BAFFR-CHO cells stimulated with fixed human BAFF CHO-K1 cells [5]: 1020 pM
IC50, STAT3-luciferase reporter in DB lymphoblast B cells [6]: 145 pM
IC90, STAT3-luciferase reporter in DB lymphoblast B cells [6]: 1230 pM
IC50, IL-23-induced mouse IL-17 release from mouse splenocytes [7]: 155 pM
IC90, IL-23-induced mouse IL-17 release from mouse splenocytes [7]: 1310 pM
IC50, IL-23-induced mouse IL-17 release from mouse splenocytes [8]: 146 pM
IC90, IL-23-induced mouse IL-17 release from mouse splenocytes [8]: 1650 pM
Kd [9]: < 15 pM
Kd [10]: < 15 pM
Kd [11]: < 15 pM
Kd [12]: < 15 pM
Ratio of binding signal in WB/kinetic buffer [13]: 1.2
Ratio of binding signal in WB/kinetic buffer [14]: 1.1
